2 molecules from article PMC10715038 (Microbiology Spectrum, 2023) can be followed below.

Assay [1] deals with T1, SARS-CoV-2 WHU01 Spike RBD, monomeric (SARS-CoV-2, UniProt P0DTC2).
T1 construct: not shown: Fc (human IgG1), C-terminal, cleaved
The assay can be described thus: SPR. Conditions: both partners purified.

For assay [2], the target named is T1, SARS-CoV-2 WHU01 Spike RBD, monomeric. Put plainly: SPR. Particulars: both partners purified. The source holds these as a separate data set.

B1: Rhinolophus sinicus bat ACE2-huFc (soluble bat ACE2 ectodomain, human IgG1 Fc fusion) (Fc fusion)
chain: QSTTEDEAKMFLDKFNTKAEDLSHQSSLASWDYNTNINDENVQKMDEAGAKWSAFYEEQSKLAKNYSLEQIQNVTVKLQLQILQQSGSPVLSEDKSKRLNSILNAMSTIYSTGKVCKPNKPQECLLLEPGLDNIMGTSKDYNERLWAWEGWRAEVGKQLRPLYEEYVVLKNEMARGYHYEDYGDYWRRDYETEESPGPGYSRDQLMKDVERIFTEIKPLYEHLHAYVRAKLMDTYPFHISPTGCLPAHLLGDMWGRFWTNLYPLTVPFGQKPNIDVTDEMLKQGWDADRIFKEAEKFFVSVGLPNMTEGFWNNSMLTEPGDGRKVVCHPTAWDLGKGDFRIKMCTKVTMEDFLTAHHEMGHIQYDMAYASQPYLLRNGANEGFHEAVGEVMSLSVATPKHLKTMGLLSPDFREDNETEINFLLKQALNIVGTLPFTYMLEKWRWMVFKGEIPKEEWMKKWWEMKRKIVGVVEPVPHDETYCDPASLFHVANDYSFIRYYTRTIFEFQFHEALCRIAQHDGPLHKCDISNSTDAGKKLHQMLSVGKSQAWTKTLEDIVDSRNMDVGPLLKYFEPLYTWLQEQNRKSYVGWNTDWSPYSDQSIKVRISLKSALGENAYEWNDNEMYLFRSSVAYAMREYFLKEKHQTILFGAENVWVSNLKPRISFNFHVTSPGNLSDIIPRPEVEGAIRMSRSRINDAFRLDDNSLEFLGIQPTLGPPYQPPVT
In assay [1], B1 yielded an equilibrium dissociation constant (Kd) of 1920 nM, a koff of 0.0377 s⁻¹ and a kon of 20000 M⁻¹ s⁻¹. In assay [2], this molecule returned a dissociation constant Kd of 1140 nM, a koff of 0.0343 s⁻¹ and an on-rate constant (kon) of 30000 M⁻¹ s⁻¹.

B2: Pig ACE2-huFc (soluble pig ACE2 ectodomain, human IgG1 Fc fusion) (Fc fusion)
chain: QSTTEELAKTFLEKFNLEAEDLAYQSSLASWNYNTNITDENIQKMNDARAKWSAFYEEQSRIAKTYPLDEIQTLILKRQLQALQQSGTSGLSADKSKRLNTILNTMSTIYSSGKVLDPNNPQECLVLEPGLDEIMENSKDYSRRLWAWESWRAEVGKQLRPLYEEYVVLENEMARANNYEDYGDYWRGDYEVTGTGDYDYSRNQLMEDVERTFAEIKPLYEHLHAYVRAKLMDAYPSRISPTGCLPAHLLGDMWGRFWTNLYPLTVPFGEKPSIDVTEAMVNQSWDAIRIFEEAEKFFVSIGLPNMTQGFWNNSMLTEPGDGRKVVCHPTAWDLGKGDFRIKMCTKVTMDDFLTAHHEMGHIQYDMAYAIQPYLLRNGANEGFHEAVGEIMSLSAATPHYLKALGLLPPDFYEDSETEINFLLKQALTIVGTLPFTYMLEKWRWMVFKGEIPKEQWMQKWWEMKREIVGVVEPLPHDETYCDPACLFHVAEDYSFIRYYTRTIYQFQFHEALCRTAKHEGPLYKCDISNSTEAGQKLLQMLSLGKSEPWTLALENIVGVKTMDVKPLLSYFEPLLTWLKAQNGNSSVGWNTDWTPYADQSIKVRISLKSALGKEAYEWNDNEMYLFRSSIAYAMRNYFSSAKNETIPFGAEDVWVSDLKPRISFNFFVTSPANMSDIIPRSDVEKAISMSRSRINDAFRLDDNTLEFLGIQPTLGPPDEPPVT
In assay [1], B2 registered a Kd of 1000 nM, an off-rate constant (koff) of 0.0395 s⁻¹ and an on-rate (kon) of 40000 M⁻¹ s⁻¹. In addition, in assay [2], the equilibrium dissociation constant (Kd) worked out at 1140 nM, the off-rate (koff) stood at 0.1 s⁻¹ and the kon worked out at 87000 M⁻¹ s⁻¹.

A word on the Kd: it is the concentration at which binding is half-saturated. By koff is commonly meant the rate constant with which the complex falls apart. High values mean a short-lived complex, low ones a long-lived complex. The kon is a measure of how fast the partners come together.
